Reference: patent publication US9028816 (Ablynx, dated 2015)

Tests used:
collagen type I = target: T1, collagen type I; experiment: ELISA: collagen type I coated at 25 µg/ml, purified VHH in twofold dilutions, detection as in Example 7 (Example 34) [collagen type I]
T1 construct: coated on the microtiter plate

[1] = target: T2, human von Willebrand factor (vWF) (human, UniProt P04275 764-2813); experiment: ELISA: coated vWF, purified vWF A1-specific VHH, as in Example 7 (Example 20)
T2 construct: also called Human vWF

[2] = target: human serum albumin (HSA) (human, UniProt P02768 25-609); experiment: phage on blotted plasma (1/10)
pig serum albumin = pig serum albumin (pig, UniProt P08835 25-607); experiment: phage on blotted plasma (1/10)
Sequence of pig serum albumin (P08835 25-607 limits assumed): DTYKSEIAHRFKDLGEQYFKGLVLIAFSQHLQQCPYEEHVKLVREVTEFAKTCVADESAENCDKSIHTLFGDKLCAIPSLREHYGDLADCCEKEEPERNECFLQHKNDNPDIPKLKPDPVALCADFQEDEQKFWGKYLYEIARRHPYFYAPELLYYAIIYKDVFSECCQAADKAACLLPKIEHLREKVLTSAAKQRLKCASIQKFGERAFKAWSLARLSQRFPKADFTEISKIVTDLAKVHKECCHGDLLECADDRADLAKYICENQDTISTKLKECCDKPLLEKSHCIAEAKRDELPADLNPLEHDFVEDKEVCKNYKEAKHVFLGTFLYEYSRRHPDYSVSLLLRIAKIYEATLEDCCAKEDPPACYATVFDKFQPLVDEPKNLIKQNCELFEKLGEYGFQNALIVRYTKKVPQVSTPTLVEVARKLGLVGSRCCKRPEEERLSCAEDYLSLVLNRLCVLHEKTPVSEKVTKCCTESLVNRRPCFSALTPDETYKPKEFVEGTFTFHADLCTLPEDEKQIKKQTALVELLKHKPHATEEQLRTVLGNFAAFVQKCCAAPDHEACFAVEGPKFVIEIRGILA

[3] = target: T3, mouse serum albumin (MSA) (mouse, UniProt P07724 25-608); experiment: ELISA: MSA coated at 5 µg/ml, purified nanobody in 1/3 dilutions, detection with rabbit anti-nanobody serum and anti-rabbit alkaline phosphatase, PNPP (Example 50)
T3 construct: also called mouse albumin
T3 sequence (P07724 25-608 limits assumed): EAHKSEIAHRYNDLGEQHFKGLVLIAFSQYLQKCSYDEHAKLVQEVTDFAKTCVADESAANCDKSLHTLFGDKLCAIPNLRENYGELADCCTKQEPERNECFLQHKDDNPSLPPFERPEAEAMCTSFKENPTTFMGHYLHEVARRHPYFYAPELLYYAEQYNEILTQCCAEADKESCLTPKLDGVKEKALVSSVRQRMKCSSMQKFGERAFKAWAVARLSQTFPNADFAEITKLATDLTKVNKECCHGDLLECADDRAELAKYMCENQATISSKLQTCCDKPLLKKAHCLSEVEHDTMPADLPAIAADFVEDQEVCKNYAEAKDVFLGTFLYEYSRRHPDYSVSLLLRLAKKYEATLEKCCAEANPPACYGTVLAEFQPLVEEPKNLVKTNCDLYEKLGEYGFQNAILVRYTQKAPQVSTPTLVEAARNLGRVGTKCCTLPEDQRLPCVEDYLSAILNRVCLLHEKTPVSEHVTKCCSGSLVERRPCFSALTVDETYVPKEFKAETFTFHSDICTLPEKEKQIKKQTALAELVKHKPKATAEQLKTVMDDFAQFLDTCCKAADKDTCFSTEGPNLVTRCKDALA

B1: 3P1-31 (VHH)
VHH: QVQLQESGGGLVQAGGSLRLSCAASGRTFRRYAMGWYRQAPGKQRELVAAITSGGRTSVADTVKGRFTISSDNAKNTVYLQMNSLKPEDAAVYYCTLYNSTTNYYNQSPSSWGQGTQVTVSS
EC50 (read off the curve) (collagen type I): ~200 nM

B2: Z29 (VHH)
VHH: QVQLQESGGGSVQAGDSLTLSCAASGRTFSMHAMGWFRQAPGKEREFVAAISPSAFTEYADSLKGRFTVSRDNAKKLVWLQMNGLKPEDTAAYYCAARRGAFTATTAPLYDYWGQGTQVTVSS
EC50 (read off the curve) [1]: ~70 nM

B3: 3L-41 (VHH)
VHH: QVQLQDSGGGLVQAGGSLRLSCAASGRTFRRYAMGWYRQAPGKQRVLVAAITSNGRPSVADSVKGRFTISSDTAKNTVYLQMNSLKPEDTALYYCTLYNTSADYYNQSPSSWGQGTQVTVLS
EC50 (read off the curve) (collagen type I): ~10 nM

B4: MSA24 (VHH)
VHH: QVQLQESGGGLVQPGNSLRLSCAASGFTFRNFGMSWVRQAPGKEPEWVSSISGSGSNTIYADSVKDRFTISRDNAKSTLYLQMNSLKPEDTAVYYCTIGGSLSRSSQGTQVTVSS
binding result [2]: binds
binding result (pig serum albumin): binds
EC50 (read off the curve) [3]: ~0.6 nM
